Reference: article PMC8897147
Each block holds one binder with its values, some of them ahead of it.

What was measured:
Test in all cases: FRET or BRET
[1] = target: secretin receptor-Rluc8, P47872; conditions: remark: other sources report otherwise
[2] = target: T1, glucagon-like peptide-1 receptor-Rluc8, P43220; conditions: remark: other sources report otherwise
T1 chain: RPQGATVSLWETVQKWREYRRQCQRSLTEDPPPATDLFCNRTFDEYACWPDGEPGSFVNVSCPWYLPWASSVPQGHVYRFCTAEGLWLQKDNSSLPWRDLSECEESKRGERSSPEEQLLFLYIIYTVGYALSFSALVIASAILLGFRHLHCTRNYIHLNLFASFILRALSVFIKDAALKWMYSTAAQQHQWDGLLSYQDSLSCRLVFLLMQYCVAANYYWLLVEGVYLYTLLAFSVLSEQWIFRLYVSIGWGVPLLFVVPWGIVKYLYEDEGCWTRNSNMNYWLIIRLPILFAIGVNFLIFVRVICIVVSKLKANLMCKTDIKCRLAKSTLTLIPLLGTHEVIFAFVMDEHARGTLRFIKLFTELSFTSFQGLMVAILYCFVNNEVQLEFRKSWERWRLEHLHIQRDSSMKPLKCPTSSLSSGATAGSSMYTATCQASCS

[3] = target: T2, growth hormone-releasing hormone receptor-Rluc8, Q02643; conditions: remark: other sources report otherwise
T2 chain: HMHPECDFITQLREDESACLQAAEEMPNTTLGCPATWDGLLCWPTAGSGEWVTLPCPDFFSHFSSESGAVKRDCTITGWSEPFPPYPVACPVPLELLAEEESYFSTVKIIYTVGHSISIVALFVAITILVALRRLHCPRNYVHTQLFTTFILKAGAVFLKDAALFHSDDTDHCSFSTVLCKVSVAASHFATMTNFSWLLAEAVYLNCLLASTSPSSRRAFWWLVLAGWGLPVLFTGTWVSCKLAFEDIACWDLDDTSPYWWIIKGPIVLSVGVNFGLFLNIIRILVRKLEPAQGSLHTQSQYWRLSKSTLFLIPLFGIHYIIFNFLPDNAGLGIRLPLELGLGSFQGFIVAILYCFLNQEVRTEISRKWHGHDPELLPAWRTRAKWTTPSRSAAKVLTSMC

[4] = target: SV1, splice variant of GHRHR, -Rluc8

secretin receptor-Rluc8, P47872, sequence (P47872 23-440): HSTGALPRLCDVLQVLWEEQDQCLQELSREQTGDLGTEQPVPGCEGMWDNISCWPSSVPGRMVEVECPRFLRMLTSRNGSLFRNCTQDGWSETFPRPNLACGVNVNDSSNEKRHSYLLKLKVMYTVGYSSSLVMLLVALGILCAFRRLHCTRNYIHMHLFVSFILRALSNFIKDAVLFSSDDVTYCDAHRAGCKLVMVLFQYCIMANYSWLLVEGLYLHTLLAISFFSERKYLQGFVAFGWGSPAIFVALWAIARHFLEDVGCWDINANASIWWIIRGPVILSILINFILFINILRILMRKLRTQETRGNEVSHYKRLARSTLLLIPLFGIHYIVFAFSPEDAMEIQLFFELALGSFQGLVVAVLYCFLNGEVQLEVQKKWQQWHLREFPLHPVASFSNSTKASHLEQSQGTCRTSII

- BRET50 (Kd) (intensity ratio of RAMP:receptor) [1]: 2.41
- BRET50 (Kd) (intensity ratio of RAMP:receptor) [2]: 2.23
B1: RAMP2-Ypet (receptor activity-modulating protein 2), O60895 43-175 (natural protein)
chain: QPLPTTGTPGSEGGTVKNYETAVQFCWNHYKDQMDPIEKDWCDWAMISRPYSTLRDCLEHFAELFDLGFPNPLAERIIFETHQIHFANCSLVQPTFSDPPEDVLLAMIIAPICLIPFLITLVVWRSKDSEAQA

- BRET50 (Kd) (intensity ratio of RAMP:receptor) [3]: 2.43
- BRET50 (Kd) (intensity ratio of RAMP:receptor) [1]: 1.3
- BRET50 (Kd) (intensity ratio of RAMP:receptor) [2]: 10.9
B2: RAMP1-Ypet (receptor activity-modulating protein 1), O60894 27-148 (natural protein)
chain: CQEANYGALLRELCLTQFQVDMEAVGETLWCDWGRTIRSYRELADCTWHMAEKLGCFWPNAEVDRFFLAVHGRYFRSCPISGRAVRDPPGSILYPFIVVPITVTLLVTALVVWQSKRTEGIV

- BRET50 (Kd) (intensity ratio of RAMP:receptor) [4]: 5.98
B3: RAMP3-Ypet (receptor activity-modulating protein 3) (natural protein)
chain: RAGGCNETGMLERLPLCGKAFADMMGKVDVWKWCNLSEFIVYYESFTNCTEMEANVVGCYWPNPLAQGFITGIHRQFFSNCTVDRVHLEDPPDEVLIPLIVIPVVLTVAMAGLVVWRSKRTDTLL
